B1: Protein SGT1 (Saccharomyces cerevisiae), Q08446 (parent)
chain: MPVEKDLKTAYKALYDEKEPLKALHLYDEILKGSPTNLTALIFKAACLEKLYFGFSDWHSDATMENAKELLDKALMTAEGRGDRSKIGLVNFRYFVHFFNIKDYELAQSYFKKAKNLGYVDDTLPLWEDRLETKLNKKNKKQKDSTNKHTIKPVESIENRGDNNSSHSPISPLKIETAPQESPKFKIDWYQSSTSVTISLFTVNLPESKEQVNIYISPNDRRTLSISYQVPKSGSEFQYNAKLSHEVDPKAVSLKIFPKKLEITLSKIDSTQWKKLEEDILTESSRLSDEGKNSDSATRLLSAETASKERLSYPSSSKKKIDWSKLDIDEEADEEAGSADSFFQKLYAGADPDTKRAMMKSFIESNGTALSTDWEDVSKGTVKTSPPEGMEPKHW

Variants of: B1
Details: with skp1_yeast SKP1, P52286
Sequence of skp1_yeast SKP1, P52286 (P52286 whole entry): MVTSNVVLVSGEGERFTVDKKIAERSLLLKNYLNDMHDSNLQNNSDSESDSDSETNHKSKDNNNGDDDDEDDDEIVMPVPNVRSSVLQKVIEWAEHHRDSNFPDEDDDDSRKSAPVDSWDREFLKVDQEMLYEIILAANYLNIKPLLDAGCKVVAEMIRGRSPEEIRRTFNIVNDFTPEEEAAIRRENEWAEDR

Row | Variant | effect of a mutation on the interaction
1 | T146S | decreasing interaction

— IntAct's records for PubMed 15090617
